Positions count from the first letter of the chain named. Numbers in names are those of the source. Entries after “also recorded” stand apart in the source; their conditions may differ.
Columns and labels:
[1] = system: wild-type Pseudomonas putida AroF-I enzyme; experiment: Enzymatic activity assay (PEP consumption by HPLC), inhibition by tyrosine; type: biochemical; details: 1 mM tyrosine, 300 μM PEP, 300 μM E4P, 60 minutes at 30° C., FIG. 1
Experimental: The activity of the enzymes is measured by monitoring the disappearance of the substrate using HPLC (High Pressure Liquid Chromatography) detection. The reaction is performed in a final volume of 200 μl with 40 mM of phosphate buffer, pH 7, 300 μM of phospho(enol)pyruvate (PEP), 20 μg of purified enzyme, 1 mM of tyrosine (or another aromatic amino acid) or 3 μM of HCl, the volume being completed with ultrapure water. After pre-incubation for 2 minutes at 30° C., the reaction is initiated by adding 300 μM of erythrose-4-phosphate […]) and the reaction mixture is incubated for 60 minutes at 30° C. Finally, the mixture is heated for 5 minutes at 80° C. in order to stop the reaction and precipitate the proteins. The enzymatic activity assays are firstly centrifuged for 10 minutes at 15 000×g in order to precipitate the proteins. The supernatant obtained is filtered over a 0.22 μm membrane before HPLC analysis. The method used is described below: • System: Agilent 1100 (Agilent) • Column: Luna OMEGA polar C18 (Phenomenex) • Mobile phase: 1 mM phosphoric acid • Flow rate: 0.3 ml/min • UV detection: 220 nm • Injection: 5 μl • Duration of analysis: 15 minutes In order to quantify the amount of PEP present in the samples, a series of standards is analyzed, with PEP concentrations from 0.1 mM to 1 mM.

[2] = system: AroF-I enzyme; experiment: Enzymatic activity assay (PEP consumption by HPLC) of AroF-I mutants with or without tyrosine; type: biochemical, Pseudomonas putida; details: for resistance of the enzyme to inhibition by tyrosine: 1 mM tyrosine, PEP consumed compared to AroF-I WT, FIG. 2-4; for enzymatic activity (PEP consumed): in the presence or absence of tyrosine, FIG. 3
Experimental: In order to express and purify the AroF-I enzyme and the mutants derived therefrom, the corresponding genes are cloned in a pET28_b(+) plasmid with a His tag grafted to the N-terminal part of the protein (upstream of the gene's ATG).
The activity of the enzymes is measured by monitoring the disappearance of the substrate using HPLC (High Pressure Liquid Chromatography) detection.
The reaction is performed in a final volume of 200 μl with 40 mM of phosphate buffer, pH 7, 300 μM of phospho(enol)pyruvate (PEP), 20 μg of purified enzyme, 1 mM of tyrosine (or another aromatic amino acid) or 3 μM of HCl, the volume being completed with ultrapure water.
After pre-incubation for 2 minutes at 30° C., the reaction is initiated by adding 300 μM of erythrose-4-phosphate (E4P) and the reaction mixture is incubated for 60 minutes at 30° C.
Finally, the mixture is heated for 5 minutes at 80° C. in order to stop the reaction and precipitate the proteins.
The enzymatic activity assays are firstly centrifuged for 10 minutes at 15 000×g in order to precipitate the proteins. The supernatant obtained is filtered over a 0.22 μm membrane before HPLC analysis.
The method used is described below: • System: Agilent 1100 (Agilent) • Column: Luna OMEGA polar C18 (Phenomenex) • Mobile phase: 1 mM phosphoric acid • Flow rate: 0.3 ml/min • UV detection: 220 nm • Injection: 5 μl • Duration of analysis: 15 minutes
In order to quantify the amount of PEP present in the samples, a series of standards is analyzed, with PEP concentrations from 0.1 mM to 1 mM.

N[C@@H](Cc1ccc(O)cc1)C(=O)O [tyrosine]
activity of the wild-type AroF-I enzyme in the presence of tyrosine [1]: inhibited

B1: P160L/Q164A: Pseudomonas putida AroF-I DAHP synthase with P160L/Q164A double mutation, SEQ ID NO:3 (protein, listed as Pseudomonas putida)
chain: LAAGTRDLTSNTMADLPIDDLNVASNETLITPDQLKKEIPLSAKALQTVTAGREVVRNILDGKDHRLFVVVGPCSIHDIKAAHEYAERLKVLAEEVSDTLYLVMRVYFEKPRTTVGWKGLINDPYLDDSFKIQDGLHIGRKLLLDLAEMGLPTATEALDLISPAYLQDLISWSAIGARTTESQTHREMASGLSSAVGFKNGTDGGLTVAINALQSVSKPHRFLGINQEGGVSIVTTKGNPYGHVVLRGGNGKPNYDSVSVALCEQDLAKAKIKANIMVDCSHANSNKDPALQPLVMENVANQILEGNQSIIGLMVESHLNWGCQSIPKNLDDLQYGVSITDACIDWSATEKTLRSMHAKLKDVLPQRKRGLAAGTRDLTSNTMADLPIDDLNVASNETLITPDQLKKEIPLSAKALQTVTAGREVVRNILDGKDHRLFVVVGPCSIHDIKAAHEYAERLKVLAEEVSDTLYLVMRVYFEKPRTTVGWKGLINDPYLDDSFKIQDGLHIGRKLLLDLAEMGLPTATEALDLISPAYLQDLISWSAIGARTTESQTHREMASGLSSAVGFKNGTDGGLTVAINALQSVSKPHRFLGINQEGGVSIVTTKGNPYGHVVLRGGNGKPNYDSVSVALCEQDLAKAKIKANIMVDCSHANSNKDPALQPLVMENVANQILEGNQSIIGLMVESHLNWGCQSIPKNLDDLQYGVSITDACIDWSATEKTLRSMHAKLKDVLPQRKRG
resistance of the enzyme to inhibition by tyrosine [2]: slightly improved

B2: P160L: Pseudomonas putida AroF-I DAHP synthase with P160L mutation, SEQ ID NO:2 (protein, listed as Pseudomonas putida)
chain: LAAGTRDLTSNTMADLPIDDLNVASNETLITPDQLKKEIPLSAKALQTVTAGREVVRNILDGKDHRLFVVVGPCSIHDIKAAHEYAERLKVLAEEVSDTLYLVMRVYFEKPRTTVGWKGLINDPYLDDSFKIQDGLHIGRKLLLDLAEMGLPTATEALDLISPQYLQDLISWSAIGARTTESQTHREMASGLSSAVGFKNGTDGGLTVAINALQSVSKPHRFLGINQEGGVSIVTTKGNPYGHVVLRGGNGKPNYDSVSVALCEQDLAKAKIKANIMVDCSHANSNKDPALQPLVMENVANQILEGNQSIIGLMVESHLNWGCQSIPKNLDDLQYGVSITDACIDWSATEKTLRSMHAKLKDVLPQRKRG
resistance of the enzyme to inhibition by tyrosine [2]: partially resistant

B3: P160L/G191K: Pseudomonas putida AroF-I DAHP synthase with P160L/G191K double mutation (protein)
chain: B2 chain with G191K
enzymatic activity (PEP consumed) [2]: no longer has any activity

B4: P160L/S193A: Pseudomonas putida AroF-I DAHP synthase with P160L/S193A double mutation, SEQ ID NO:4 (protein, listed as Pseudomonas putida)
chain: B2 chain with S193A
resistance of the enzyme to inhibition by tyrosine [2]: virtually completely resistant; also recorded: synergistic effect
enzymatic activity (PEP consumed) [2]: restored virtually all the enzymatic activity

Source: patent US20250283030A1, “Biosynthesis of Phenylpropanoid Compounds” (BGENE GENETICS, priority 2021, published 2025)
